Experiments:
[1] = target: T1, Mouse TfR1 (TR06671428-001; Takeda) (mouse, UniProt Q62351 89-763); experiment: SPR (Biacore 8K+), I2S immobilized on CM5 by amine coupling, TfR1 as analyte
T1 construct: Injected as analyte in SPR; also called mTFR1; mouse transferrin receptor 1
Description: (§1) Surface Plasmon Resonance (SPR) assays: Binding affinity between human/mouse receptor with Iduronate 2 Sulfatase or idursulfase (I2S) tagged with an anti-transferrin receptor binding single domain antibody (VHH) was determined using the Biacore 8K+ instrument (Cytiva; Danaher Corporation). In this experiment, samples were immobilized on a series S sensor chip CM5 (Catalog #29104988) via amine coupling. Samples immobilized (ligand) were i) I2S-VHH ii) VHH-I2S iii) I2S as negative control iv) Holo transferrin peptide as positive control. 1 ug/mL of ligand, reconstituted in Acetate pH 4.0, was immobilized on individual flow cells for 420 s, yielding a final immobilization level of approximately 350 Response Units. Recombinant Human TfR Protein (R&D Systems; Catalog #2474-TR) and Mouse TfR1 (TR06671428-001; Takeda) were injected on this surface (as analyte) with a concentration range of 5, 2.5, 1.25, 0.625 & 0.156 ug/mL. Analyte series was injected for 120 s, followed by a dissociation phase for a duration that yields at least 10% dissociation of analyte. Resulting sensograms were analyzed using the 1:1 Binding Model.

[2] = target: T2, Recombinant Human TfR Protein (R&D Systems; Catalog #2474-TR) (human, UniProt P02786 89-760); experiment: SPR (Biacore 8K+), I2S immobilized on CM5 by amine coupling, TfR as analyte
T2 construct: Bought reagent, injected as analyte in SPR; also called hTfR1; hTFR1
T2 sequence (P02786 89-760 limits assumed): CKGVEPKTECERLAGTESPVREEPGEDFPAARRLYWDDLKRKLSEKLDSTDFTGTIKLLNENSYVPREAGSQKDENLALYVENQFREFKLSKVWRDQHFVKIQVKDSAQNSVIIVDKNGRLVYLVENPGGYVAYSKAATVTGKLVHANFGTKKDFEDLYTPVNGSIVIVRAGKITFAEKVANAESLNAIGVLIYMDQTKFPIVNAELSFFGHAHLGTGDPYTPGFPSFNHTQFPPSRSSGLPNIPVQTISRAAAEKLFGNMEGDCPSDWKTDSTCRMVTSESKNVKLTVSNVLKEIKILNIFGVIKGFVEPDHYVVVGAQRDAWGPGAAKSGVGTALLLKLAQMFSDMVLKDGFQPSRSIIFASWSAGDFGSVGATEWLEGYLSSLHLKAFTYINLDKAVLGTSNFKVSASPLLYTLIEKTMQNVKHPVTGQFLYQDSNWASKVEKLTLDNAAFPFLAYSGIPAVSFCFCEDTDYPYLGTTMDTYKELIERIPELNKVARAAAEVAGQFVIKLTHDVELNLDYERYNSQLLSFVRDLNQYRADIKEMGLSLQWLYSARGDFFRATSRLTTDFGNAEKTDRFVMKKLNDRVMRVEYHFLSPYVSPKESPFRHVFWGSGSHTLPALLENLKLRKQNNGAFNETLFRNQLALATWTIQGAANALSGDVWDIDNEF
Description: as §1

T1 sequence (Q62351 89-763 limits assumed): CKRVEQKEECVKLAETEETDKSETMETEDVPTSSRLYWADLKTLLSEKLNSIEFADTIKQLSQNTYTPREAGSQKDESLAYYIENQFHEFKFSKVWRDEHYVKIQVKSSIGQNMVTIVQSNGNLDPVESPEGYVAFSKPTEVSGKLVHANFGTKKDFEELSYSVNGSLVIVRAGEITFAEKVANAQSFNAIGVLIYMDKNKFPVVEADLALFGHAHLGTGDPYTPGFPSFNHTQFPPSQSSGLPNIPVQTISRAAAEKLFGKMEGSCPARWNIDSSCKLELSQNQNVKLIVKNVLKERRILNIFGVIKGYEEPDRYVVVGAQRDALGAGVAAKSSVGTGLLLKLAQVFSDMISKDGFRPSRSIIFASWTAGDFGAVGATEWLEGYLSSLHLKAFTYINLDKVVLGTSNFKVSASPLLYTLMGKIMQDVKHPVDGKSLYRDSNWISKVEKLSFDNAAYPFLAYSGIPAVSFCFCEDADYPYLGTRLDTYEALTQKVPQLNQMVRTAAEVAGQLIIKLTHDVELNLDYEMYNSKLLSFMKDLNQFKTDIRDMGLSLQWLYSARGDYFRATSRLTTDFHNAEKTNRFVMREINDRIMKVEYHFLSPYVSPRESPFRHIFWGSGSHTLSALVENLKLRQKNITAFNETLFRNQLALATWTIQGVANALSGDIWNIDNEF

B1: I2S control (untagged human iduronate-2-sulfatase, purified protein) (enzyme)
chain: SETQANSTTDALNVLLIIVDDLRPSLGCYGDKLVRSPNIDQLASHSLLFQNAFAQQAVCAPSRVSFLTGRRPDTTRLYDFNSYWRVHAGNFSTIPQYFKENGYVTMSVGKVFHPGISSNHTDDSPYSWSFPPYHPSSEKYENTKTCRGPDGELHANLLCPVDVLDVPEGTLPDKQSTEQAIQLLEKMKTSASPFFLAVGYHKPHIPFRYPKEFQKLYPLENITLAPDPEVPDGLPPVAYNPWMDIRQREDVQALNISVPYGPIPVDFQRKIRQSYFASVSYLDTQVGRLLSALDDLQLANSTIIAFTSDHGWALGEHGEWAKYSNFDVATHVPLIFYVPGRTASLPEAGEKLFPYLDPFDSASQLMEPGRQSMDLVELVSLFPTLAGLAGLQVPPRCPVPSFHVELCREGKNLLKHFRFRDLEEDPYLPGNPRELIAYSQYPRPSDIPQWNSDKPSLKDIKIMGYSIRTIDYRYTVWVGFNPDEFLANFSDIHAGELYFVDSDPLQDHNMYNDSQGGDLFQLLMP
notes: Negative control in the SPR assay; also called idursulfase; IDS
[1]
  binding result: no binding (tested: analyte 0.156-5 ug/mL)
[2]
  binding result: no binding (tested: analyte 0.156-5 ug/mL)
